Experimental data taken from the supplement of paper PMC7877785.
± gives the uncertainty stated by the source.

Assay: self-splicing fitness, log relative to wild type (ln ratio); higher = more splicing; Tetrahymena group I intron in knt gene, E. coli kanamycin selection, DiMSum; sequences stand for … in CUCUCU…GGAGGGAAAAGUUAUCAGGCAUGCACCUGGUAGCUAGUCUUUAAACCAAUAGAUUGCAUCGGUUUAAAAGGCAAGACCGUCAAAUUGCGGGAAAGGGGUCAACAGCCGUUCAGUACCAAGUCUCAGGGGAAACUUUGAGAUGGCCUUGCAAAGGGUAUGGUAAUAAGCUGACGGACAUGGUCCUAACCACGCAGCCAAGUCCUAAGUCAACAGAUCUUCUGUUGAUAUGGAUGCAGUUCACAGACUAAAUGUCGGUCGGGGAAGAUGUAUUCUUCUCAUAAGAUAUAGUCGGACCUCUCCUUAAUGGGAGCUAGCGGAUGAAGUGAUGCAACACUGGAGCCGCUGGGAACUAAUUUGUAUGCGAAAGUAUAUUGAUUAGUUUUGGAGUACUCGUGGUCG
Outline: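 Library with all eight P1ex-region intron nucleotides randomised, intron inside the knt kanamycin-resistance gene on pET-22b(+), in E. coli BL21(DE3). Cells grew overnight at 37°C or 30°C on LB agar with or without 25 μg/mL kanamycin (plus 100 μg/mL carbenicillin, 50 μM IPTG, 0.2% rhamnose), in six replicate transformations. Pooled colonies were amplicon-sequenced on Illumina HiSeq 2500. DiMSum fitness is the error-weighted combination of wild-type-normalised replicate fold changes, kanamycin versus none.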

| Sequence | self-splicing fitness (ln) (30 °C) | self-splicing fitness (ln) (37 °C) |
| --- | --- | --- |
| GUUCAGCAAUAUUACGAUGA | -1.07 ± 0.13 | -0.686 ± 0.19 |
| AGUUAGCAAUAUUACGCUCA | -1.23 ± 0.16 | -0.21 ± 0.15 |
| UACUAGCAAUAUUACGUAAA | -1.66 ± 0.12 | -0.614 ± 0.14 |
| UCCGAGCAAUAUUACGUCCA | -2.89 ± 0.38 | -2.37 ± 0.34 |
| ACCAAGCAAUAUUACGCUAA | -3.3 ± 0.16 | -2.33 ± 0.14 |
| UCGUAGCAAUAUUACGAUGC | -4.1 ± 0.33 | -2.27 ± 0.27 |
| ACUGAGCAAUAUUACGAUGA | -1.9 ± 0.091 | -1.59 ± 0.098 |
| AAAUAGCAAUAUUACGCGCC | -0.57 ± 0.13 | -0.337 ± 0.15 |
| UCAAAGCAAUAUUACGUGUG | -1.51 ± 0.058 | -0.749 ± 0.066 |
| UACAAGCAAUAUUACGGAAU | -3.62 ± 0.24 | -2.44 ± 0.25 |
| CGAAAGCAAUAUUACGCGAC | -2.36 ± 0.19 | -3.26 ± 0.25 |
| UCGGAGCAAUAUUACGUAGU | – | -0.551 ± 0.29 |
| GCCUAGCAAUAUUACGUGUU | -0.926 ± 0.042 | 0.15 ± 0.055 |
| UACGAGCAAUAUUACGUGUA | -3.39 ± 0.2 | -2.21 ± 0.16 |
| AUAGAGCAAUAUUACGAGUU | -2.25 ± 0.13 | -1.33 ± 0.15 |
| CCCCAGCAAUAUUACGUUAC | -4.86 ± 0.46 | -2.37 ± 0.28 |
| CGCGAGCAAUAUUACGUUGA | -3.51 ± 0.25 | -2.05 ± 0.2 |
| CAUGAGCAAUAUUACGGCUU | -2.99 ± 0.17 | -2.92 ± 0.29 |
| CUUCAGCAAUAUUACGCCAC | -2.72 ± 0.5 | – |
| CCGUAGCAAUAUUACGUUGA | -2.67 ± 0.33 | -3.13 ± 0.29 |
| GGCCAGCAAUAUUACGGAAG | -1.79 ± 0.082 | -0.69 ± 0.11 |
| AGUUAGCAAUAUUACGAGGG | -4.11 ± 0.38 | -2.06 ± 0.33 |
| AACCAGCAAUAUUACGGGGU | -3.73 ± 0.14 | -2.88 ± 0.16 |
| CGACAGCAAUAUUACGAAUA | -2.16 ± 0.18 | -3.12 ± 0.3 |
| AUGCAGCAAUAUUACGGAUU | -1.57 ± 0.071 | -1.14 ± 0.1 |

| Sequence | self-splicing fitness (ln) (30 °C) | self-splicing fitness (ln) (37 °C) |
| --- | --- | --- |
| CCCCAGCAAUAUUACGGUAC | -3.84 ± 0.25 | -2.66 ± 0.21 |
| GUACAGCAAUAUUACGAGCA | -1.59 ± 0.13 | -1.12 ± 0.13 |
| CACUAGCAAUAUUACGGUUA | -1.99 ± 0.12 | -0.466 ± 0.1 |
| GUAUAGCAAUAUUACGCAGA | -2.74 ± 0.32 | -2.71 ± 0.34 |
| GUGUAGCAAUAUUACGGAGU | -2.96 ± 0.17 | -2.61 ± 0.29 |
| GACUAGCAAUAUUACGGGGG | -3.39 ± 0.27 | -1.46 ± 0.25 |
| CCAGAGCAAUAUUACGCAAA | -2.79 ± 0.48 | -1.57 ± 0.33 |
| GGAUAGCAAUAUUACGGCCG | -0.857 ± 0.18 | 0.103 ± 0.2 |
| UGCGAGCAAUAUUACGCGGG | -2.61 ± 0.3 | – |
| GUCAAGCAAUAUUACGGCCC | -0.498 ± 0.33 | – |
| CUUCAGCAAUAUUACGAGCG | -0.695 ± 0.058 | -0.136 ± 0.085 |
| CUCAAGCAAUAUUACGCACA | -2.17 ± 0.34 | -2.48 ± 0.28 |
| CUACAGCAAUAUUACGGGCA | -2.76 ± 0.18 | -2.21 ± 0.21 |
| AACUAGCAAUAUUACGACAC | -1.04 ± 0.085 | -0.404 ± 0.11 |
| UUCCAGCAAUAUUACGCCCA | -1.38 ± 0.18 | -0.115 ± 0.17 |
| GGGUAGCAAUAUUACGCUGG | -2.61 ± 0.35 | -2.45 ± 0.42 |
| CUUUAGCAAUAUUACGACGG | -0.354 ± 0.13 | -0.827 ± 0.16 |
| CGGAAGCAAUAUUACGUGUA | -3.19 ± 0.17 | -3.6 ± 0.27 |
| AAUCAGCAAUAUUACGGAUU | -2.89 ± 0.15 | -2.74 ± 0.16 |
| UCCGAGCAAUAUUACGACAU | -3.93 ± 0.031 | -2.98 ± 0.043 |
| CCCAAGCAAUAUUACGGGGC | -4.7 ± 0.39 | -3.08 ± 0.27 |
| AUGUAGCAAUAUUACGACUU | -0.0543 ± 0.089 | -0.312 ± 0.088 |
| UGACAGCAAUAUUACGGUUC | -2.92 ± 0.11 | -1.79 ± 0.085 |
| AAGUAGCAAUAUUACGGGUG | -3.43 ± 0.17 | -1.14 ± 0.12 |
